Test results as given in patent publication US20250145716A1 (RAKUTEN MEDICAL, published 2025).

Tests used:
6xHis-tagged huPD-L1 [1] = molecular target: T1, 6xHis-tagged huPD-L1 (human, UniProt Q9NZQ7 19-238); assay: ELISA, plate-coated human PD-L1 (1 µg/mL), OD 450 nm, B7 ligand specificity panel
T1 construct: also called human PD-L1 (RD Systems 9049-B7); extracellular domain of human PD-L1 fused to a His tag; not shown: 6xHis tag
Protocol: (§1) Hybridoma supernatants were tested for binding to huPD-L1, cyPD-L1, and muPD-L1 by ELISA. Briefly, 30 μL 6xHis-tagged huPD-L1, cyPD-L1, or muPD-L1 (1 μg/mL in PBS) were immobilized in wells of a 96-well assay plate overnight at 4° C. After washing and blocking steps, 30 μL of antibody supernatant were added to the plate and incubated at room temperature for 1 hr. Bound human antibody was detected using horseradish peroxidase (HRP)-conjugated goat anti-human Fc (Invitrogen Cat. No. 109-035-097; diluted 1:5000) or goat anti-mouse Fc HRP (Invitrogen Cat. No. 115-035-071) as a control. Bound antibody was detected with 1-Step Ultra™ TMB-ELISA Substrate (ThermoFisher Scientific Cat. No. 34029). When the reaction was complete the reaction was stopped, and the plate was read at 450 nm.
(§2) Briefly, wells of a 96-well plate (Corning 3690) were incubated with 30 μL human PD-L1 (RD Systems 9049-B7), human PD-L2 (RD Systems 9075-PL), human B7-1/CD80 (RD Systems 9050-B1), human B7-2/CD86 (RD Systems 9090-B2), human B7-H2 (RD Systems 8206-B7), or human B7-H3 (RD Systems 1949-B3), at a concentration of 1 μg/mL in PBS, overnight at 4C, to coat the wells with ligand. After washing and blocking steps, 30 μL of antibody at 8 concentrations ranging from 1 ng/mL to 3 mg/mL were added to the plate and incubated at room temperature for 1 hr. Bound human antibody was detected as described above.

[2] = molecular target: T2, human B7-1/CD80 (RD Systems 9050-B1) (human, UniProt P33681 35-242); assay: ELISA, plate-coated human B7-1/CD80 (1 µg/mL), OD 450 nm, B7 ligand specificity panel
T2 sequence (looked up): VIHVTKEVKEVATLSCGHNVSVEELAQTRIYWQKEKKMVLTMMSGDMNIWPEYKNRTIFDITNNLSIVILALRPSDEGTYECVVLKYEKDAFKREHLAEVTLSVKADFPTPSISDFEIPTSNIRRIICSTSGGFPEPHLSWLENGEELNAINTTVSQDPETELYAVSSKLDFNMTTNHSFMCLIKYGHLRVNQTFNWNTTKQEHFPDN
Protocol: as §1, §2

[3] = molecular target: T3, PD-L1-His (Acro Cat PDL-H5229) (human, UniProt Q9NZQ7 19-238); assay: SPR (Biacore 4000), antibody captured on anti-human CM4 chip, PD-L1-His analyte, 37° C.
T3 construct: also called human PD-L1 (SPR analyte); not shown: His tag
T3 sequence (Q9NZQ7 19-238 limits assumed): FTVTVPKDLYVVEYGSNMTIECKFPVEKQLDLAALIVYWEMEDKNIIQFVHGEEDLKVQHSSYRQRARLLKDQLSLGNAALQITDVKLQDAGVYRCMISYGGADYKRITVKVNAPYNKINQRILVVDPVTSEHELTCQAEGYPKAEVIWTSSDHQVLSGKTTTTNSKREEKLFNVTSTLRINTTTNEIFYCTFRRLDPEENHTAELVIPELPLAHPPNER
Protocol: (§3) The binding affinities of the generated antibodies to human PD-L1 were determined by surface plasmon resonance. […] PD-L1-His (Acro Cat PDL-H5229) was tested for binding in a 3-fold titration series up to 100 nM. Data were collected in HBS-P (pH 7.4) at 37° C. and 25° C.

6xHis-tagged huPD-L1 [4] = molecular target: T1, 6xHis-tagged huPD-L1; assay: ELISA, plate-coated 6xHis huPD-L1, OD 450 nm
Protocol: as §1
(§4) Anti-PD-L1 antibodies, described in Example 1A and manufactured substantially as described in Example 1B, were tested for to huPD-L1 and cyPD-L1 by ELISA substantially as described in Example 1A, using 12 dilutions of antibody ranging from 1 ng/ml to 3 mg/mL.

[5] = molecular target: T4, human PD-L1 expressed on cells (human, UniProt Q9NZQ7 19-290); assay: flow cytometry on unstimulated A431 cells (MFI against antibody concentration)
T4 construct: whole, on cells; One entry covers all human PD-L1-bearing cells; also called huPD-L1 on CHO cells (CHO-hPD-L1); PD-L1 on A431 cells
T4 sequence (Q9NZQ7 19-290): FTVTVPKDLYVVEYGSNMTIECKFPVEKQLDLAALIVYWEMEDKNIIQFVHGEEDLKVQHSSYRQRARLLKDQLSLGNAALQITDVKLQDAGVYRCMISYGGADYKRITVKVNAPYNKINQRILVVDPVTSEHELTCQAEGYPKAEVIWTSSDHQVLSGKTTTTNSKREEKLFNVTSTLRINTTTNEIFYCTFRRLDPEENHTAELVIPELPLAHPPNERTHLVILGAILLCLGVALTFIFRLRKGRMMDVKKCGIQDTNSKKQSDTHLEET
Protocol: Approximately 2.5×10⁵ A431 squamous cell carcinoma cells were plated in a final volume of 50 μL FACS buffer (phosphate buffered saline, 1% fetal bovine serum, 5 mM EDTA) in 96-well plates. 50 μL 2× Zombie Violet (BioLegend) were added to each well, and the plates were incubated 20-30 minutes at room temperature, protected from light. After incubation, 150 μL FACS buffer were added to each well. The plates were centrifuged at 500×g for 5 minutes. The supernatant was removed, and the cell pellet were resuspended in 200 μL FACS buffer. The wash procedure was repeated for a total of 2-3 washes. […] After the cells were incubated with the primary anti-PD-L1 antibody 1 hour on ice, protected from light, 150 μL FACS buffer were added to each well. The plates were then centrifuged, the supernatant was removed, and the cells were resuspended in 250 μL FACS buffer three times. After the third wash, the cells were resuspended in 100 μL goat anti-human IgG-Alexa Fluor 488 secondary antibody, and incubated for 30 minutes on ice, protected from light. After 3 washes as previously described, the cells were resuspended in 200 μL FACS buffer. The cells were then analyzed using a CytoFLEX flow cytometer.

[6] = molecular target: T3, PD-L1-His (Acro Cat PDL-H5229); assay: SPR (Biacore 4000), antibody captured on anti-human CM4 chip, PD-L1-His analyte, 25° C.
Protocol: as §3

[7] = molecular target: T5, human B7-2/CD86 (RD Systems 9090-B2) (human, UniProt P42081 24-247, limits assumed); assay: ELISA, plate-coated human B7-2/CD86 (1 µg/mL), OD 450 nm, B7 ligand specificity panel
T5 sequence (looked up): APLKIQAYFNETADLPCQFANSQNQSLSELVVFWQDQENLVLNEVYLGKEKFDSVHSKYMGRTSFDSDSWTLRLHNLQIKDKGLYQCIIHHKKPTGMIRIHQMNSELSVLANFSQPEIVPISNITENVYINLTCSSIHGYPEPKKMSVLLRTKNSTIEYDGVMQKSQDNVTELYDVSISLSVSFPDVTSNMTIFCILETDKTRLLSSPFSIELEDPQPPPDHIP
Protocol: as §1, §2

6xHis-tagged cyPD-L1 = molecular target: T6, 6xHis-tagged cyPD-L1 (cynomolgus monkey, UniProt Q9NZQ7 19-238 (human entry)); assay: ELISA, plate-coated 6xHis cyPD-L1, OD 450 nm
T6 construct: The assay text says only '6xHis-tagged cyPD-L1'; also called cynomolgus PD-L1; not shown: 6xHis tag
T6 sequence (Q9NZQ7 other isoform, or with tags, fused parts or gaps): as the sequence (Q9NZQ7 19-238 limits assumed) above, with A33T, A34S, S62N, R68Q, Q82R, F173L, T185A, T192I, H215L counted along it
Protocol: as §1, §4

T1 sequence (Q9NZQ7 19-238): as the sequence (Q9NZQ7 19-238 limits assumed) above

EC50 (6xHis-tagged huPD-L1 [1]): 0.0953 µg/mL
EC50 [2]: 5.31 µg/mL
Kd [3]: 1.1 nM
koff [3]: 0.00037 s⁻¹
kon [3]: 330000 M⁻¹ s⁻¹
EC50 (6xHis-tagged huPD-L1 [4]): 0.0359 µg/mL
EC50 [5]: 0.0159 µg/mL
Kd [6]: 0.27 nM
koff [6]: 5.1e-05 s⁻¹
kon [6]: 190000 M⁻¹ s⁻¹
EC50 [7]: 1.14 µg/mL
EC50 (6xHis-tagged cyPD-L1): 0.0338 µg/mL
B1: 1P9 (antibody, V domains shown)
VH: EVQLVESGGGLVQPGGSLRLSCAASGFTFSTYWMSWVRQAPGKGLEWVANIKQDGGERYYVDSVKGRFTISRDNAKSSLYLQMNSLRAEDTALYYCARLRLYSDYEDYWGQGTLVTVSS
VL: DIQMTQSPSSVSASVGDRVTITCRASQGISSWLAWYQQKPGKAPKLLIYSVSSLQSGVPSRFSGSGSGTDFTLTISSLQPEDSATYYCQQANSLPPTFGGGTKVEIK
notes: Recombinant full-length human antibody expressed in CHO K1 GS KO cells, with wild-type human Fc; also called anti-PD-L1 antibody 1P9; Unconj; 1P9
